# From patent US20040233833A1, “Methods for identifying compounds with thrapeutic potential for treatment of central Neurodegenerative diseases resulting from abnormal protein or peptide accumulation” (priority 2001, published 2004)
# Biological target: 20S proteasome (human red blood cell proteasomes) (human)
# Assay: cell-based or functional assay
# REGγ (wild-type), sequence (P61289 whole entry): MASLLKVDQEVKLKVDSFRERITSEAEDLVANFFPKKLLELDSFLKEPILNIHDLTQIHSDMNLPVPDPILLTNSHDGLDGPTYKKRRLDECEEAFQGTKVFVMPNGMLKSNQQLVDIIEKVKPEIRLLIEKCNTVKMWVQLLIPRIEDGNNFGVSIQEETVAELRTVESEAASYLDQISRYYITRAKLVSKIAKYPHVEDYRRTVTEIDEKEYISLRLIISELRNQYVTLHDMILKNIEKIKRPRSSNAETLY
half-life of the 49-residue peptide BBC1 with the proteasome [min],"rate of CT/PGPH labeling by 125I-YL3-VS, fold over proteasome alone [fold]","rate of T-subunit labeling by 125I-YL3-VS, fold over proteasome alone [fold]",Substance
45,4.4,4.7,REGγ (wild-type) (from UniProt P61289 1-254)
–,11.9,10.8,REGγ(K188E) (from UniProt P61289 1-254)

# Biological target: 20S proteasome (human red blood cell proteasomes) (human)
# Assay: competition assay with REGα(N146Y)/REGβ(N135Y) as competitor for the proteasome
row,Substance,Relative affinity for proteasome (% of wild-type REGγ)
1,REGγ(K188A) (from UniProt P61289 1-254),60
2,REGγ(K188C) (from UniProt P61289 1-254),60
3,REGγ(K188E) (from UniProt P61289 1-254),90
4,REGγ(K188H) (from UniProt P61289 1-254),50
5,REGγ(K188I) (from UniProt P61289 1-254),60
6,REGγ(K188N) (from UniProt P61289 1-254),75
7,REGγ(K188P) (from UniProt P61289 1-254),40
8,REGγ(K188Q) (from UniProt P61289 1-254),75

# The remaining lines, values ahead:
row,Relative affinity for proteasome (% of wild-type REGγ),Substance
1,0,REGα (from UniProt Q06323 1-249)
2,100,REGγ (wild-type) (from UniProt P61289 1-254)
3,90,REGγ(K188D) (from UniProt P61289 1-254)
4,40,REGγ(K188F) (from UniProt P61289 1-254)
5,75,REGγ(K188R) (from UniProt P61289 1-254)
6,50,REGγ(K188S) (from UniProt P61289 1-254)
